Test results: patent US20210395761

Experiments:
[1] = test system: T1, SF370.1 serine recombinase (SF370.1-HA-NLS) (Streptococcus pyogenes phage 370.1); test: cell_activity; settings: lettuce; 1 colony without recombinase
T1 sequence: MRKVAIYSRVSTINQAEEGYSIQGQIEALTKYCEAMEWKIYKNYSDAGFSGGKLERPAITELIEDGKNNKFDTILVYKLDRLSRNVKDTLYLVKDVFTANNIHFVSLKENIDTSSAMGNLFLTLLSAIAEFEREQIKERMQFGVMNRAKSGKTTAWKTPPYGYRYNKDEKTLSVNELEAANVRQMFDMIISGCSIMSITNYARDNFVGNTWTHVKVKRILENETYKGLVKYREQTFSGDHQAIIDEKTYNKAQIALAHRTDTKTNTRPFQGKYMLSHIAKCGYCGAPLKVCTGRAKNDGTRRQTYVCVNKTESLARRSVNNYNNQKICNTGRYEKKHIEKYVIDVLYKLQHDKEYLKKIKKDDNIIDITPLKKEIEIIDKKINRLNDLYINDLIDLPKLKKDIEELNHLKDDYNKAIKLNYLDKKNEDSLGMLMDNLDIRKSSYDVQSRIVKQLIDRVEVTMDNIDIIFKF

[2] = target: SPβc2 serine recombinase (SPβc2-HA-NLS) (Bacillus subtilis phage SPβc2) (UniProt O32006); test: cell_activity; settings: lettuce initial screen; attP gave 27; background level
Chain of SPβc2 serine recombinase (SPβc2-HA-NLS) (Bacillus subtilis phage SPβc2) (O32006 whole entry): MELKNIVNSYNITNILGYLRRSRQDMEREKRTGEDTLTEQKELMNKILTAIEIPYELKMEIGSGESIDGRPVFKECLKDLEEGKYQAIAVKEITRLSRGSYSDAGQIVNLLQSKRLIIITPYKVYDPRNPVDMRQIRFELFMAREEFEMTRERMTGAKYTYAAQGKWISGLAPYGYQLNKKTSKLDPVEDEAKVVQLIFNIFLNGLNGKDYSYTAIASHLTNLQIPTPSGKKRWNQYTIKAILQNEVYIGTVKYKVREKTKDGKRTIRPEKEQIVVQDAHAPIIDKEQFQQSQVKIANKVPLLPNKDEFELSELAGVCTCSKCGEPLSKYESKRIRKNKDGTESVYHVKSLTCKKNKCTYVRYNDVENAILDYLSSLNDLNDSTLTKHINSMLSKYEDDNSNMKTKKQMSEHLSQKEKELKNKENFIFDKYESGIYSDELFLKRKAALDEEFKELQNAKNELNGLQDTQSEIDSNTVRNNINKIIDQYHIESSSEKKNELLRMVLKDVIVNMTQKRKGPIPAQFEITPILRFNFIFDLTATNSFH

ATTTTTGTATCCAGTTCAATGGATATTTGATATAATCGTCTTAAAAAGGAGGTCGTGAAATGGATAAAAAAATACAGCGTTTTTCATGTACAACTATACTAGTTGTAGTGCCTAAATAATGCTTTTAAAACTTAAAAATAATATCGATGTTATCCATAGTAACCTCGACTCTATCTATCAATTGCTTAACTATCCTAGAT (double strand) [SF370 attP]
activity (GFP+ Kan resistant colonies) [1]: 4

siteless reporter plasmid
activity [2]: 1 GFP+ colony
